Values of other authors, collected in publication PMC4620043.
Read-outs that look alike come from different tables or passages of the source.

Legend:
fibrin (Homo sapiens) [1] = biological target: fibrin (Homo sapiens) (UniProt P02671)
fibrin (Homo sapiens) [2] = biological target: fibrin (Homo sapiens) (UniProt P02671); remark: listed apart in the source

Row | Kd (fibrin (Homo sapiens) [1]) [nM] | Kd (fibrin (Homo sapiens) [2]) [µM] | Substance
1 | 8 | – | GPRPP peptide
2 | – | 6 | CREKA peptide
